B1: wild-type human ventricular regulatory light chain, dephosphorylated (mock phosphorylation reaction) (natural protein)
chain: MAPKKAKKRAGGANSNVFSMFEQTQIQEFKEAFTIMDQNRDGFIDKNDLRDTFAALGRVNVKNEEIDEMIKEAPGPINFTVFLTMFGEKLKGADPEETILNAFKVFDPEGKGVLKADYVREMLTTQAERFSKEEVDQMFAAFPPDVTGNLDYKNLVHIITHGEEKD
B2: N47K human ventricular regulatory light chain, phosphorylated by MLCK (natural protein)
chain: B1 chain with N47K
modifications: phosphoserine at 15 (98.4 ± 1.6% phosphorylated)
B3: R58Q human ventricular regulatory light chain, dephosphorylated (mock phosphorylation reaction) (natural protein)
chain: B1 chain with R58Q
B4: wild-type human ventricular regulatory light chain, phosphorylated by MLCK (natural protein)
chain: B1 chain
modifications: phosphoserine at 15 (95.7 ± 3.6% phosphorylated)
B5: R58Q human ventricular regulatory light chain, phosphorylated by MLCK (natural protein)
chain: B1 chain with R58Q
modifications: phosphoserine at 15 (87.4 ± 0.8% phosphorylated; full phosphorylation never accomplished)
B6: N47K human ventricular regulatory light chain, dephosphorylated (mock phosphorylation reaction) (natural protein)
chain: B1 chain with N47K

The record followed here is paper PMC4790447.

Positions count from the first letter of the chain named. Numbers in names are those of the source.

For the test, the target named is RLC-depleted porcine cardiac β-myosin (porcine) (UniProt P79293). The experiment in a line: co-sedimentation.
With B1, the percent reconstitution (densitometry) came out at 108%.

For B2, the percent reconstitution (densitometry) turned out to be 96.2%.

Molecule B3 came in with a percent reconstitution (densitometry) of 97.8%.

In turn, B4 registered a percent reconstitution (densitometry) of 109%.

The molecule B5 displayed a percent reconstitution (densitometry) of 107%.

Molecule B6 yielded a percent reconstitution (densitometry) of 106%.
